This note sets out measurements from article PMC2115046.

The target of assay [1] is G-actin, rabbit skeletal muscle (rabbit) (UniProt P68135). Nature of the assay: other fluorescence titration.
The target is the same in assay [2]. The experiment in a line: dissociation kinetics by etheno-ATP fluorescence decay.
Assay [3] shares this target. Nature of the assay: association kinetics by inactivation of etheno-ATP exchange.
For assay [4] the target is unchanged.

Values joined by “and” are separate entries in the source; they are usually repeats but may differ in a detail not shown here. Identical values can stand only once. Like-named read-outs stand apart in the source and are kept apart here.

Broadly, the koff is the rate constant with which the complex falls apart. Low readings indicate a long-lived complex, high ones a short-lived complex. As a reminder, the stoichiometry N is a count of units in the complex or per binding partner. The kon is a measure of how fast the partners come together. One may read the Kd as the concentration at which binding is half-saturated. Low values mean higher affinity, high ones lower affinity.

Sequence of 14NT, 14-kD fragment of human plasma gelsolin containing the NH2 terminal (domain or fragment) (P06396 28-782): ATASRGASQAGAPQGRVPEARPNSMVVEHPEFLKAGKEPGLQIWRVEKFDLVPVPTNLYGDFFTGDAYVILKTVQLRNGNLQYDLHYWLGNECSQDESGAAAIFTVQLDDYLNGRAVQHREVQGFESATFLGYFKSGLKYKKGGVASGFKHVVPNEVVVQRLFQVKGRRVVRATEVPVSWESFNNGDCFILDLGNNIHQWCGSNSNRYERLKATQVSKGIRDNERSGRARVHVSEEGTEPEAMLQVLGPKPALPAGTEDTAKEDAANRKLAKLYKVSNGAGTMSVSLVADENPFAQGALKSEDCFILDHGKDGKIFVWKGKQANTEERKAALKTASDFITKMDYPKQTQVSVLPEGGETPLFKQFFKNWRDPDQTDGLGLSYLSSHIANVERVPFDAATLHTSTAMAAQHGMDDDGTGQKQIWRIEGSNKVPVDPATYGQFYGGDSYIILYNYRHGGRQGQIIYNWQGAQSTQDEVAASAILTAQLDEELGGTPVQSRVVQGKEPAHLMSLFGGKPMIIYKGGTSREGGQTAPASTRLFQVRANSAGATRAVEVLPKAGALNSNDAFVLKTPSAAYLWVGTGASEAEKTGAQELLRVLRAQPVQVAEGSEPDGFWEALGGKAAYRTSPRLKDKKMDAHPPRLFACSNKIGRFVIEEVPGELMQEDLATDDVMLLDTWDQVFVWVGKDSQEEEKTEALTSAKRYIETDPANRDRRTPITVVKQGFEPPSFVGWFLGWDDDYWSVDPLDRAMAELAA
Sequence of 41CT, 41-kD COOH-terminal half of human plasma gelsolin (domain or fragment) (P06396 28-782): as above

“14NT, 14-kD fragment of human plasma gelsolin containing the NH2 terminal (domain or fragment)”: in assay [1], the half-maximal saturation was 1 nM and 2 nM; the koff stood at 0.0003 s⁻¹; the stoichiometry N was found to be 1. In assay [2], this substance registered a koff of 1.35e-06 s⁻¹ and a t1/2 of the complex of 143 h. Besides, the kon in assay [3] amounted to 299000 M⁻¹ s⁻¹. Also, in assay [4], the Ka came out at 2.2e+11 M⁻¹ and the Kd was in the range of 0.004 to 0.005 nM.
In assay [1], “41CT, 41-kD COOH-terminal half of human plasma gelsolin (domain or fragment)” gave a Kd of 25 nM and a stoichiometry N of 1.
